Test results published in publication PMC8280356, “Purification and Characterization of Nit_(phym), a Robust Thermostable Nitrilase From Paraburkholderia phymatum” (Frontiers in Bioengineering and Biotechnology, 2021).

Target: the molecule itself
Test: SEC; analytical gel filtration on Superdex 200 Increase 10/300 GL; 100 uL of purified protein at 3.9 mg/mL; mobile phase 50 mM Tris-HCl pH 8.0, 0.15 mM NaCl, 10% glycerol, 0.3 mL/min; elution volume compared to a calibration curve of proteins of known molecular weight

B1: Nit_(phym), nitrilase from Paraburkholderia phymatum DSM 17167 (enzyme, UniProt B2JQY2 1-340, looked up)
chain: MSDQRVIRAAAVQIAPDFERPGGTLDRVCAAIDEAASKGVQLIVFPETFVPYYPYFSFVRPPVASGADHMRLYEQAVVVPGPVTHAVSERARRHAMVVVLGVNERDHGSLYNTQLVFDIDGCQVLKRRKITPTFHERMIWGQGDAAGLKVARTGIARVGALACWEHYNPLARYALMTQHEEIHCSQFPGSLVGPIFAEQIEVTIRHHALESGCFVVNSTGWLSDAQIESVTTDPKLQKALRGGCMTAIVSPEGQHLAEPLREGEGMVVADLDMALITKRKRMMDSVGHYARPELLSLAINDRPAMPVVPMSMSFERAGADVAPEIISGGQDECQHEPVAG
notes: nitrilase Nit_(phym) (NIT188) from Paraburkholderia phymatum DSM 17167, Uniprot ID B2JQY2; subunit with an apparent molecular mass of 37 kDa on SDS-PAGE; also called NIT188
- stoichiometry N: > 18 subunits
